From patent US20240327502A1 come the findings set out here.

First the molecules themselves.
B1: M4A02 (antibody, V domains shown)
VH: EVQLVESGGGLVEPGGSLRLSCAASGFMFTSYAMHWVRQAPGRGLEWVSSITGGGNFVEYAVSVQGRFTVSRDNNQNSLYLQMNSLRVEDTAMYYCAREDYNSGANLHWFDPWGQGTLVTVSS
VL: QSVLTQPPSVSGAPGQRVTISCTGSSSNIGAFFDVHWYSHLPGTAPKLLIYGDRNRPSGVPERFSGSKSGASASLTITGLRAEDEADYYCQSYDRGLSAWVFGGGTRVTVL
B2: M4A05 (antibody, V domains shown)
VH: EVQLVESGGGLVKPGGSLRLSCAAFGFSLSGYGMNWVRQAPGKGLQWVSSITASSSYITYRDSLRGRFTISRDNAQNSLYLDMTALRVEDTAVYYCATNGKLPPYFDHWGQGVLVVVSS
VL: QSVLTQPPSVSGAPGQRVTISCTGSGSNIGAGYDVHWYQQLPGTAPKLLIYDNNHRASGVPDRVSASWSGTSASLAITGLQAEDEADYYCQSYDRNLEGVVFGGGTKLTVL
B3: M4A11 (antibody, V domains shown)
VH: QVQLVQSGSEVKRPGASVRVSCTASGYTFSNYGVSWMRQAPGHGLEWMGWISTHNQNVRYSQNFQGRVTVTTDTSTSTAYMDLRGLKPDDTAVYFCARMIPVGTTYTPYWTGWTPGGMDIWGQGTTVIVSS
VL: QSVLTQPPSASGTPGQRVIMSCSGTTSNIGRNFVYWYQQLPKEAPTLLIYGNDQRPAGVPDRFSGSTSGTSASLAISGLRSGDEADYYCATWDDSVNGPVFGGGTKLTVL
B4: M3E01 (antibody, V domains shown)
VH: EVQLVESGGGLIQPGGSLRLSCTASGFTVSSKYMSWVRQAPGKGLEWVSLIYDGGSTYYADSVKGRFLISRDNAKNTLYLQMHSLRAEDTAVYYCARDRGTYSGYDWYSGMDVWGQGTTVTVSS
VL: DIQLTQSPSFLSASVGDRITITCRASQGISSYLAWYQQKPGKAPKLLIYAASTLQSGVPSRFSGSGSGTEFNVTISSLQPEDFATYYCQQLKSYPGTFGQGTKVEIE
B5: M3A06 (antibody, V domains shown)
VH: EVQLVESGGGLVKPGGSLRLSCAASGFTLTSYSMNWVRQAPGKGLEWVSSISSSSSYIHYADSVKGRFTISRDNAKNSVYLQMNSLRAEDTAAYYCARVARELDPFDMWGQGTVVTVAS
VL: QSVLTQPPSVSGAPGQRVTISCTGSSSNIGAGYDVHWYQQLPGTAPKLLVYANNNRPSGVPDRFSGSKSGTSASLAITGLQADDEADYYCQSYDRSLSGSVFGGGTKLTVL
B6: M3B02 (antibody, V domains shown)
VH: EVQLVESGGGLVKPGGSLRISCVASEFTLSGYAMNWVRQVPGKGLEWVSSISSSSSYINYADFVKGRFTISRDNAKNSVFLQLNSLRPEDTALYYCVRERPTAILPYLDLWGRGTLVTVSS
VL: B5 VL with H36Q, L41S, V50I, Y51H, A52G, D83E, S100W

Substitutions are numbered along the chain they refer to. Where only a bound is given, the exact number is not on record here.

Substrate in the first experiment: F protein of hMPV B virus (human metapneumovirus subtype B)
As to the kind of experiment: cell-based or functional assay.
As to B1, the PRNT IC50 amounted to 0.0927 mg/L.
The same measure, in the same setting: the result for B2 reads 0.0425 mg/L; that for B3, more than 10 mg/L.
On to B4, for which the PRNT IC50 is more than 10 mg/L.
On the same count and under the same terms, the result for B5 reads 0.416 mg/L; that for B6, 1.54 mg/L.

Substrate in the next experiment: F protein of RSV B/Washington virus (respiratory syncytial virus B, Washington strain)
As to the kind of experiment: cell-based or functional assay.
For the molecule B1, the PRNT IC50 was determined as 0.0364 mg/L.
Still for that read-out and setting: the result for B2 reads 0.0295 mg/L.
The same measure, in the same setting: the result for B5 reads 0.0274 mg/L; that for B6, 0.0153 mg/L.

Substrate in another experiment: F protein of hMPV A virus (human metapneumovirus subtype A)
As to the kind of experiment: cell-based or functional assay.
As for B1, the PRNT IC50 is 0.186 mg/L.
On to B2, for which the PRNT IC50 was found to be 0.0569 mg/L.
On the same count and under the same terms, in the case of B3 it was more than 10 mg/L.
On the same count and under the same terms, in the case of B4 it was more than 10 mg/L; in that of B5, 0.31 mg/L.
Turning to B6, the PRNT IC50 turned out to be 1.06 mg/L.
